Our source for the binding result and EC50 values is patent publication US20250368740A1 (SHENZHEN BAISHITONG TECHNOLOGY DEVELOPMENT, published 2025).

Several values for one entry are separate records, joined by “and”; a condition that tells them apart may be missing. Equal values may be shown once. Where no end group is shown, it is not given here. The star is where a group is joined. Biotin = O=C1N[C@H]2[C@H](CS[C@H]2CCCCC(=O)*)N1

The target in experiment [1] is T1, peptide 1-1, bio-ASMTLEPNKD LRPGDTVTI (145-164).
T1 construct: Alanine-scan variant of peptide 1
T1 peptide: Biotin-ASMTLEPNKDLRPGDTVTI
Description: ELISA on biotin-labeled alanine-scan peptides. On the technique in general: ELISA stands for enzyme-linked immunosorbent assay.

Experiment [2] addresses T2, peptide 1-2, bio-P AMTLEPNKD LRPGDTVTI (145-164).
T2 construct: Alanine-scan variant of peptide 1
T2 peptide: Biotin-PAMTLEPNKDLRPGDTVTI
In words: ELISA on biotin-labeled alanine-scan peptides.

For experiment [3], the target named is T3, peptide 1-3, bio-PS ATLEPNKD LRPGDTVTI (145-164).
T3 construct: Alanine-scan variant of peptide 1
T3 peptide: Biotin-PSATLEPNKDLRPGDTVTI
Description: ELISA on biotin-labeled alanine-scan peptides.

Experiment [4] deals with T4, peptide 1-4, bio-PSM ALEPNKD LRPGDTVTI (145-164).
T4 construct: Alanine-scan variant of peptide 1
T4 peptide: Biotin-PSMALEPNKDLRPGDTVTI
In words: ELISA on biotin-labeled alanine-scan peptides.

The target of experiment [5] is T5, peptide 1-5, bio-PSMT AEPNKD LRPGDTVTI (145-164).
T5 construct: Alanine-scan variant of peptide 1
T5 peptide: Biotin-PSMTAEPNKDLRPGDTVTI
In words: ELISA on biotin-labeled alanine-scan peptides.

The target of experiment [6] is T6, peptide 1-6, bio-PSMTL APNKD LRPGDTVTI (145-164).
T6 construct: Alanine-scan variant of peptide 1
T6 peptide: Biotin-PSMTLAPNKDLRPGDTVTI
Description: ELISA on biotin-labeled alanine-scan peptides.

Experiment [7] addresses T7, peptide 1-8, bio-PSMTLEP AKD LRPGDTVTI (145-164).
T7 construct: Alanine-scan variant of peptide 1
T7 peptide: Biotin-PSMTLEPAKDLRPGDTVTI
Description: ELISA on biotin-labeled alanine-scan peptides.

Experiment [8] addresses T8, peptide 1-9, bio-PSMTLEPN AD LRPGDTVTI (145-164).
T8 construct: Alanine-scan variant of peptide 1
T8 peptide: Biotin-PSMTLEPNADLRPGDTVTI
In words: ELISA on biotin-labeled alanine-scan peptides.

Experiment [9] deals with T9, peptide 1-13, bio-PSMTLEPNKD LR AGDTVTI (145-164).
T9 construct: Alanine-scan variant of peptide 1
T9 peptide: Biotin-PSMTLEPNKDLRAGDTVTI
Description: ELISA on biotin-labeled alanine-scan peptides.

In experiment [10] the target is T10, peptide 1-16, bio-PSMTLEPNKD LRPGD AVTI (145-164).
T10 construct: Alanine-scan variant of peptide 1
T10 peptide: Biotin-PSMTLEPNKDLRPGDAVTI
Description: ELISA on biotin-labeled alanine-scan peptides.

The target in experiment [11] is T11, peptide 1-17, bio-PSMTLEPNKD LRPGDT ATI (145-164).
T11 construct: Alanine-scan variant of peptide 1
T11 peptide: Biotin-PSMTLEPNKDLRPGDTATI
In words: ELISA on biotin-labeled alanine-scan peptides.

For experiment [12], the target named is T12, peptide 1-18, bio-PSMTLEPNKD LRPGDTV AI (145-164).
T12 construct: Alanine-scan variant of peptide 1
T12 peptide: Biotin-PSMTLEPNKDLRPGDTVAI
Description: ELISA on biotin-labeled alanine-scan peptides.

The target in experiment [13] is T13, peptide 1-19, bio-PSMTLEPNKD LRPGDTVT A (145-164).
T13 construct: Alanine-scan variant of peptide 1
T13 peptide: Biotin-PSMTLEPNKDLRPGDTVTA
Description: ELISA on biotin-labeled alanine-scan peptides.

Experiment [14] addresses T14, human CD276 on the surface of tumor cells (human, UniProt Q5ZPR3 29-534).
T14 construct: whole, on cells; Endogenous expression on human tumor cell lines; also called CD276 on A498 cells
T14 sequence (looked up): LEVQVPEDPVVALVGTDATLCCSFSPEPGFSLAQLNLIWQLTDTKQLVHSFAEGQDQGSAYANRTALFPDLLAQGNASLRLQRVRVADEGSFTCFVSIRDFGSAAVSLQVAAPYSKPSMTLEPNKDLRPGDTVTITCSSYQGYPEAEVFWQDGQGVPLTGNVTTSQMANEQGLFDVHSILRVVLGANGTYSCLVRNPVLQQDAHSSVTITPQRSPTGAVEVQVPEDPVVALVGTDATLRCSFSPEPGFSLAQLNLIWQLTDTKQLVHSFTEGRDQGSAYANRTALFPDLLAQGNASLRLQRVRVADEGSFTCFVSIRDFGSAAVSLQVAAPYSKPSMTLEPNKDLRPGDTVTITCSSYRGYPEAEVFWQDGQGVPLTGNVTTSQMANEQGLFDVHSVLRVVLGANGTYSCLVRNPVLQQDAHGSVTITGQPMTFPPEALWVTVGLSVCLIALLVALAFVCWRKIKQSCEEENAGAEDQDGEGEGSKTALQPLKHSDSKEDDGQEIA
Description: flow cytometry on human renal cancer cells A498. Here is the method: In this experiment, human renal cancer cells A498 were used as the target cells. […] The cells were washed twice with PBS to remove those secondary antibody unbinding to the cells and then resuspended in 100 μL PBS.
(A flow cytometer gives signals particle by particle.)

Experiment [15] addresses T15, C2-type 1-Fc (human).
T15 construct: Expressed in Expi-293F cells, purified on Protein A, tested by Western blot; also called Ig-like C2-type 1 (Domain 2) of human CD276-ECD linked to human Fc; second functional domain of human CD276-ECD
Description: Western blot on Fc fusion proteins of the domains. (In general: In western blotting, separated proteins are transferred to a membrane and probed.)

Experiment [16] addresses T16, recombinant human CD276-ECD protein (human, UniProt Q5ZPR3 29-255).
T16 construct: Purchased from Acro BIOSYSTEMS; Used native (ELISA) and reduced and denatured (Western blot); also called B7-H3
T16 sequence: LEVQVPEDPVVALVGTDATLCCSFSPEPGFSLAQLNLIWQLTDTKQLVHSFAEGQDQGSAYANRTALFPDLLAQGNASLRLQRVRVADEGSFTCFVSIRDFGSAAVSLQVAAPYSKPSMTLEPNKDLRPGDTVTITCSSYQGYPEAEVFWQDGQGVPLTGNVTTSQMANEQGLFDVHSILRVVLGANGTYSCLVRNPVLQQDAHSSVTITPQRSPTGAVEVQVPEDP
In words: indirect ELISA, plate coated with human CD276-ECD.

For experiment [17], the target named is T17, mouse CD276-ECD (mouse, UniProt Q8VE98 29-244).
T17 construct: Purchased from Acro BIOSYSTEMS; also called mouse CD276-ECD protein
T17 sequence: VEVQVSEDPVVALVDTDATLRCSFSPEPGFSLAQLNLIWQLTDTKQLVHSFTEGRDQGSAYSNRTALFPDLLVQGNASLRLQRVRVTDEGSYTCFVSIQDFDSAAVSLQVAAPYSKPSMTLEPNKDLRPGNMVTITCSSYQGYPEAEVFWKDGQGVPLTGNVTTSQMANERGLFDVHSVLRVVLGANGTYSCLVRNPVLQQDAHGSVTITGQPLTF
In words: indirect ELISA, plate coated with 2 µg/mL mouse CD276-ECD. Here is the method: (§1) The specific method was as follows: The plates were pre-coated with crab-eating macaque and mouse CD276-ECD proteins diluted to 2 μg/mL in the coating solution (50 mM carbonate coating buffer, pH 9.6) and incubated at 4° C. overnight. The plates were then blocked with 5% skim milk powder at 37° C. for 2 hours. Afterward, the plates were washed 3 times with PBST, and the to-be-tested antibody, diluted in 1% BSA-PBST at various gradients, was added to the blocked plates at 100 μL per well. The plates were incubated at 37° C. for 1 hour. After washing the plates 3 times with PBST, HRP-conjugated goat anti-mouse IgG secondary antibody (purchased from Millipore) was added, and the plates were incubated at 37° C. for 30 minutes. After 3 more washes with PBST, residual droplets were removed by blotting on absorbent paper. Then, 100 μL of TMB substrate (purchased from KPL) was added to each well, and the plates were incubated at room temperature (20±5° C.) in the dark for 5 minutes. Finally, 50 μL of 2 M H2SO4 was added to each well to terminate the substrate reaction, and the OD value at 450 nm was read using a microplate reader to analyze the binding ability of the to-be-tested antibody to the target antigens, i.e., crab-eating macaque and mouse CD276-ECD proteins.

Experiment [18] concerns the target T18, crab-eating macaque CD276-ECD (crab-eating macaque, UniProt Q5ZPR3 217-452 (human entry)).
T18 construct: Purchased from Acro BIOSYSTEMS; also called crab-eating macaque CD276-ECD protein; crab-eating macaque CD276-ECD antigen
T18 chain: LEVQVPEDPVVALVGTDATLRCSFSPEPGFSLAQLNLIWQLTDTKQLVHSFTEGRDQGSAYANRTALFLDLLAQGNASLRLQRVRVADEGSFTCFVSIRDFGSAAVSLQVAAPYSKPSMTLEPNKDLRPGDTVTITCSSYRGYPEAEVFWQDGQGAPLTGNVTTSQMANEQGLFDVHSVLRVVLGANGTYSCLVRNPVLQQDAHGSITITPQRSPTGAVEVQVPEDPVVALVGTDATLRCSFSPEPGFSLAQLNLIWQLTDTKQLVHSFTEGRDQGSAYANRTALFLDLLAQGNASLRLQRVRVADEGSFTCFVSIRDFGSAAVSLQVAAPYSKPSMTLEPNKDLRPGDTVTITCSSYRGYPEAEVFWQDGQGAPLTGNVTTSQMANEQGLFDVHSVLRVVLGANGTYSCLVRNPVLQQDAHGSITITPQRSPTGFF
In words: indirect ELISA, plate coated with crab-eating macaque CD276-ECD. The procedure:
as §1

The target of experiment [19] is T19, biotinylated human CD122/132 (human, UniProt P14784 27-239; P31785 23-254, limits assumed, biotinylated (site not stated)).
T19 construct: Bought heterodimeric reagent; also called CD122/CD132
T19 sequence (looked up) 1: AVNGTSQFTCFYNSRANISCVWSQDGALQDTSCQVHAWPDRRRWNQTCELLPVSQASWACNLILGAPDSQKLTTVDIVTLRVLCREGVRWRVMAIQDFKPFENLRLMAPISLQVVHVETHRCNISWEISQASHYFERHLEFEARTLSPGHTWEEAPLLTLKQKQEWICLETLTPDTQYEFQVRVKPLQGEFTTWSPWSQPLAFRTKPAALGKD
T19 sequence (looked up) 2: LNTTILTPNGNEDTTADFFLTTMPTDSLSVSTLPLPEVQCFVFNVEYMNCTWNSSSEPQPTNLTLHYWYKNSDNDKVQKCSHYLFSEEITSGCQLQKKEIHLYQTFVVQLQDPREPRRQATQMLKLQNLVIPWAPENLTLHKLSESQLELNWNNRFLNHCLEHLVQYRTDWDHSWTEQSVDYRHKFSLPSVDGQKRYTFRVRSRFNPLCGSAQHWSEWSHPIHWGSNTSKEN
Description: sandwich ELISA: antibody on coated human CD276-ECD, biotinylated CD122/132 detected with SA-HRP. The procedure:
The method was as follows: The plates were pre-coated with human CD276-ECD protein diluted to 2 μg/mL in the coating solution (50 mM carbonate coating buffer, pH 9.6) and incubated at 4° C. overnight. The plates were then blocked with 5% skim milk powder at 37° C. for 2 hours. Afterward, the plates were washed 3 times with PBST, and the to-be-tested antibody, diluted in 1% BSA-PBST at various gradients, was added to the blocked plates at 100 μL per well. The plates were incubated at 37° C. for 1 hour. […] Following 3 additional washes with PBST, diluted HRP-conjugated streptavidin (SA) (purchased from Pierce) was added, and the plates were incubated at 37° C. for 30 minutes. After 3 more washes with PBST, residual droplets were removed by blotting on absorbent paper. Then, 100 μL of TMB substrate (purchased from KPL) was added to each well, and the plates were incubated at room temperature (20±5° C.) in the dark for 5 minutes.
As a control, hu147 could bind to CD276 (as shown in Embodiment 8), but not CD122/CD132.

T15 sequence (chain, as listed by the source limits assumed): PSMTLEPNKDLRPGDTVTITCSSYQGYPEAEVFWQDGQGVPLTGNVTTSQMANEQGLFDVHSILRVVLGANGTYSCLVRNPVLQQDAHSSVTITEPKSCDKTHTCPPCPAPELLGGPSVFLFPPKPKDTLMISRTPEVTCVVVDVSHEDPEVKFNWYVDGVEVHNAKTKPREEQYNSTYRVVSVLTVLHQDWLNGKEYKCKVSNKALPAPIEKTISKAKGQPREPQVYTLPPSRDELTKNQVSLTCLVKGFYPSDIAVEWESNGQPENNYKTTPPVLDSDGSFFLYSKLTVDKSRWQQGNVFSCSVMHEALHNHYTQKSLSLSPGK

B1: murine monoclonal antibody 147# (antibody, V domains shown)
VH: QVQLKQSGIELVRPGASVKLSCKTSGYIFTADWIYWVKQRSGQGLEWIGRIYPGVDSTYYNEKFKDKAILTADKSSSTAYMQLNSLKSEDSAVYFCARGGEVRRDFYALDYWGQGTSVTVSS
VL: NIVMTQSPESMSMSLGERVTLSCKASENVGTYVSWYQQKPEQSPKLLIYGASNRYTGVPARFTGSGSATDFTLTISSVQAEDLADYHCGQRYSYPFTFGSGTKLEIK
notes: Murine antibody purified from hybridoma supernatant by Protein G and detected with anti-mouse IgG
As for B1, the binding result in experiment [1], in experiment [2], in [3], in experiment [4], in experiment [5] and in experiment [6] was “binds” each time. For the same molecule, the binding result in experiment [7], in experiment [8], in experiment [9], in [10], in experiment [11] and in experiment [12] was “binds” throughout. The binding result was “binds” in experiment [13], “binds” in experiment [15] and “no binding” in experiment [17]. Also, the EC50 (commonly the concentration that produces a half-maximal response) was 0.0592 µg/mL and 0.39 nM in experiment [14]; 0.0384 µg/mL and 0.26 nM in [16]; 0.0302 µg/mL and 0.2 nM in experiment [18].

B2: humanized antibody hu147 (antibody)
heavy: not shown
light: EIVMTQSPPTLSLSPGERVTLSCRASENVGTYVSWYQQKPGQAPRLLIYGASNRYTGIPARFSGSGSGTDFTLTISSLQPEDFAVYYCGQRYSYPFTFGGGTKLEIKRTVAAPSVFIFPPSDEQLKSGTASVVCLLNNFYPREAKVQWKVDNALQSGNSQESVTEQDSKDSTYSLSSTLTLSKADYEKHKVYACEVTHQGLSSPVTKSFNRGEC
notes: Human IgG1 / kappa; also called hul47
Regarding B2, in experiment [16], the concentration for a half-maximal effect (EC50) was 0.0067 µg/mL and 0.04 nM. Also, in experiment [19], the binding result is reported as “no binding”.

B3: Fc-mutated humanized antibody hu147mu (antibody, human IgG1, kappa)
heavy: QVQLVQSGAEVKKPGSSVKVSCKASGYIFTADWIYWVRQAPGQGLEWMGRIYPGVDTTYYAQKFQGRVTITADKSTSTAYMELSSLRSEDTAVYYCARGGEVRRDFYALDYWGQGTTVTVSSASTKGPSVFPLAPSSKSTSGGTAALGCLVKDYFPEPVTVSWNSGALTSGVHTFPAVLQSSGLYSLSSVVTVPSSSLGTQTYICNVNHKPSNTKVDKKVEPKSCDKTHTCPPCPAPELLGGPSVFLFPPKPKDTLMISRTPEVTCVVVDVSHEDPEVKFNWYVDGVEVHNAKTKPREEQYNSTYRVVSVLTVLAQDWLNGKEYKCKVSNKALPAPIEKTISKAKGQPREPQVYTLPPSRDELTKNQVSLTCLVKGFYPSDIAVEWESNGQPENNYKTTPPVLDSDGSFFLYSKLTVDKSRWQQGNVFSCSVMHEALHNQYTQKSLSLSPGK
light: B2 light
notes: about 150 kDa; also called hul47mu
For B3, the EC50 in experiment [16] was 0.0068 µg/mL and 0.05 nM.
